According to paper PMC10794598:

What was measured:
[1] = target: NB-RBD (ER-retained receptor-binding domain of the SARS-CoV-2 S protein expressed transiently in N. benthamiana) (SARS-CoV-2) (UniProt P0DTC2); experiment: non-reducing PAGE Western blot
[2] = target: BY2-RBD (ER-retained receptor-binding domain of the SARS-CoV-2 S protein expressed stably in Nicotia (SARS-CoV-2) (UniProt P0DTC2)); experiment: non-reducing PAGE Western blot

Substance | stoichiometry N [1] | stoichiometry N [2]
NB-RBD (ER-retained receptor-binding domain of the SARS-CoV-2 S protein expressed transiently in N. benthamiana) (from UniProt P0DTC2 319-541) (domain or fragment) | 4 | –
BY2-RBD (ER-retained receptor-binding domain of the SARS-CoV-2 S protein expressed stably in Nicotia (from UniProt P0DTC2 319-541) (domain or fragment) | – | 4
